According to a protein production outcome set (Wang et al. 2014):

Experiment: label from the status in PepcDB records

Sequence | protein production
MSLISIFIPEILLVIMGFIVLAVGMFIQSGKASAAISFITLIAALLSVFFIPYDSSYGITVNKFSVYFSAVLIISALFISLPMYRYVKKRPEVFYASLIFSVIGMVIVAMTWNLVIAFVAFESVSIMTYIMSAYGGKQRNLEATIKYFFTGTIATTFIILGIGFYFFSVHTFSLSPVLNGSSISYYSGTKPEFLLALLFLLIGFGFKLAIFPMHQWAIDAYDGTENGVSAYLSTGTKIMAFVLVLKIFLVGFQSFPTPVYYMFTIIAIITMTYANVAALSQMNVKRLLAYSSVAQAGYMILVISVVSYVGLGSARSVSLAIAAGMFYALVYVFMKGGSFIAMNMVKEDNITFENISGLGKKSPYVAASFSILLLSLAGIPLTGGFLAKYFLFLSVIDSGLWWLAIIAIINSAISVFYYMKVMRYLFWEEPKGEFSTDMGNKAAVIVSAAIVVFLGVFYVLFPVLVGISSQIVG | failed
MAKIKVMSIFGTRPEAIKMAPLVLALEKEPETFESTVVITAQHREMLDQVLEIFDIKPDIDLDIMKKGQTLAEITSRVMNGINEVIAAENPDIVLVHGDTTTSFAAGLATFYQQKMLGHVEAGLRTWNKYSPFPEEMNRQLTGVMADIHFSPTKQAKENLLAEGKDPATIFVTGNTAIDALKTTVQKDYHHPILENLGDNRLILMTAHRRENLGEPMQGMFEAVREIVESREDTELVYPMHLNPAVREKAMAILGGHERIHLIEPLDAIDFHNFLRKSYLVFTDSGGVQEEAPGMGVPVLVLRDTTERPEGIEAGTLKLIGTNKENLIKEALDLLDNKESHDKMAQAANPYGDGFAANRILAAIKSHFEETDRPEDFIV | not failed
MKVELPQGGYQGLAGDGVVEFRGVPFALPPVGELRFKAPRPLPDSDRSVNADRYPLPSLQVKNPLMGVEDSGEDCLYLNIWVPEGEGPFPVMLWYHGGGYIAGSVSQPLYNGAALAASQKVVVVHAAYRLGAHGFADFATIAPELEADSNLGLRDQVAALEWVNRHIEAFGGRPDRVTLFGESAGGFSVATLMATPRARPLFQAAIVQSGAGDFALAPEEVAKVTSAFVEALPGDGSAADKLRQADPKAWIAAQNQALRTLVKRGLRDTTPQFAMNFQPMVDGDLLPRLPVDAIADGEARDIALMASVCRDEYHFFQYAGPMAGFPSVEELRRFDEAEILRRFQRALPQHGQQALSYYQRTVTPDPQRSNMDWFSAMETDRLFRVPTLRLLDAQAAHRDDTRGLQFTWTSQQFGVPMGACHVIDVPFVFGVTDTPAGMFFTGGGEPARALAAEVQKVWGDFAHGRAVQGPAWKDTRRVRQFGPGDAEAALLDADGEALWADIIPVPGTAKPGQGA | not failed
MTQMKIFVIGAHGQIGKKIVSKLVAQGDQVYAGIRQPEQAEAFEDAGAQPVQFNLMAQPEDLALAFNGMDAIVFAAGSGGQTGYDMTLMIDLDGAVKSMVAAKIAGVKRYVIISAEFTPDRSRWPRALQPYYVAKYYADEWLKNRTQLDYTILQPGTLINDAGTGKVTVNPDVGGEITRDDVATFTVQTLHTPATVGKTIALINGDTPISKAVQQA | failed
ALFHKKLTEGVLMRDPKFLWCAQCSFGFIYEREQLEATCPQCHQTFCVRCKRQWEEQHRGRSCEDFQNWKRMN | not failed
MVAVENVVFVFVAGLLTALATGLGAIPFFLVDEFSDRWNVLLWGLASGIMVAASLFGLVREGLAYGSPVLLVPGVLAGVGLVAVAHELLDDFDQSPKQFEQADFTKLLLILGILTVHSFPEGVAVGVSFAELGLEAATPESAVGIVGVSVPLLAVFMTVAISIHNIPEGTAIAIPLRSLGVSEWKMVWWAVFSSLPQPVGAVIAYYFVTLAKAFLPFGFGFAAGAMVYLVLTEFVPEALEYGDGLPGGGKRELLTGIAVGVLAMVPLAFV | failed
MKILVIGAGPAGLVFASQLKQARPLWAIDIVEKNDEQEVLGWGVVLPGRPGQHPANPLSYLDAPERLNPQFLEDFKLVHHNEPSLMSTGVLLCGVERRGLVHALRDKCRSQGIAIRFESPLLEHGELPLADYDLVVLANGVNHKTAHFTEALVPQVDYGRNKYIWYGTSQLFDQMNLVFRTHGKDIFIAHAYKYSDTMSTFIVECSEETYARARLGEMSEEASAEYVAKVFQAELGGHGLVSQPGLGWRNFMTLSHDRCHDGKLVLLGDALQSGHFSIGHGTTMAVVVAQLLVKALCTEDGVPAALKRFEERALPLVQLFRGHADNSRVWFETVEERMHLSSAEFVQSFDARRKSLPPMPEALAQNLRYALQRLEHHHHHH | not failed
MNDIAREPVLGGAPAPAVPQPLRVRFCGSGSEYFRIWIVNLLLTIVTLGIYSAWAKVRTLQYFYRNTQLGGASFDYHGSPTAILKGRAIIFVLALAFNLSGQVSPVLTLLLLAAIGLVFPWLLVRSLRFRMANSSYRGLRFAFTGKDAQAYKVFLLWPVLTVFTFNLLAPFAHQRFKQYQHRNTRFGTTSFDFSATAGQFYGVYLRTFGMAILAVMAVGVVVVLAGVSAAAGAASGGRAIAVSLMVLAMYAAMLFLGPYFLARLQNVVWNHTTLGAHRFQSQVSAGKLFWIFISNAALLIVTLGLFTPFARVRSARYKLESVTMLAAGSLDTFVAGESTRVGALGDAAVDWYDIDIAL | failed
MVPSGVRTGRWVAAARAAQRRPRVDSLGQPPSPESASTRAALYVHWPYCEKRCSYCNFNKYIPRGVEEGTVRNCLVTEARTLLRLSGVQRVESVFFGGGTPSLASPHTVAAVLEAVAQEVYLPADSEVTLEANPTSAPGPRLAAFGAAGVNRLSIGLQSLDDAELQLLGRTHSASDALRTLAEARLLFPGRVSVDLMLGLPAQKVEPWLQQLQKLLYHCDDHLSLYQLTLERGTSLFAQVQQGTLPAPDPDLAAEMYQEGRTVLRDAGFRQYEVSNFARNGALSTHNWTYWQCGQYLGIGPGAHGRFVPQGTGGHTREARIQTLEPDNWMKEVTLFGHGTRKCVRLGKLELLEEVLAMGLRTDVGVTHQHWQQFEPQLTLWDVFGASKEVEELLAQGLLLLDYRGLRCSWEGLAVLDSLLLTLLPQLQEAWQHRPSSPVSGG | failed
MAKFIMVVGTSSNSGKTVLVSGICRMLSNKGYKVAPFKSQNMSLNSRVSVEDGEIAVAQYTQAMAARAEPSVHFNPILLKPKGNFVSQVIVHGNPYEDKDYNEYRSKKDDFLVKIKESIDYLDKNYDYVVIEGAGSCCEINLLNDDIANLKVAEIAGADAILVSDIDRGGVFASIYGTVQLLPENWKKLLKGFVINKFRGNIDVLKDGFEKIEELTNIPVIGTIPYDETLVLPEEDSQALDGKRVFGNLKSPIEVNVVKFSKIANFTDVDPFSSDCLMKYIDFNENITGDILILPGTRCSTVEMDLMKKYGMDKKILEFVENGGIVLGICGGYQALGKMLFDEDFSEGDVGTISGLGLFDMETTFGNKKAIKNSTGKISIFNQNFDVSGYELHEGYSVSNETPLISLSKGFGNCGDSYDGSFKMIGDSYIFGTYFHGILENFEFRNYLVNLARSKKNLSKIEDDTYAELFNENMDKLSKIIEENLDFSKIIG | failed
MIVSITLLILAVGVFAIILARFIRIPYTLLLVVLGFFLSLFTVAFGIDTGVRASNFQDLMLFILLPVLIFEAAFALNSKLLFKYLPNVLTLATLGLIISTLVIAVFLYFGIAHSGFPFIAALLTGVVISATDPVAVVGQLKALKAPDDLNVLIEGESLFNDATAIVLFSIILSIALGQSEPDLTSAIITFSKVFFGGIIVGSVFGYIAALLVKIIDTSVPHMVVITLFLAYGTFYIAEHLFHVSGIVAVMFAALLFKKSAQDQLKDVHTGLHNIWESLGFIANIFVFVLLGLVVSLNMFTQMWLAIILAIVGAFIARVIAVYCSVWLNQVIVGQPINRKYPPIMIWGGLRGAVTIALVLSLPTELPYWWTIQSIGFGIVLFTLIVQATTTPLLVKKLNI | failed
MGQVEVIDRRQSVFGDDIQLQKRSSSYEIISNGVFLMSTENGRSEREMVTLGAQHMKNAVHSVLIGGLGVGITADEAVHLNDHVQVHVVEIEPSVVEWQYRYLYPFSNQALEHERTAIIISDIQQWLRTNERTYDLICLDTDNGPDWMVHKQNASLYGKIGLELVRERVRVGGAVSFWSASASESFLHELETLFDRVYEHAVSLEHHHHHH | failed
MNKRSIFSNWFITARPKTLPLALASIMVGSALANWVGQFDWVTNLLAIITTMLLQILSNFANDYGDYVKGSDTQERIGPLRAIQQGNITGEQLRQAVIFLSFLSFISGLVLTIYAYQSLQDLLVFVSLGVVSIIAAISYTVGKKAYGYLGLGDLFVLIFFGFVAVIGSFYLQAHSIPIIILLPAFACGLLSVAVLNINNLRDINQDRQAGKNTLIVRIGSDNGRIYHMLLLTLAVICYLIFAIIEGNHWYNYLFLLAVPLLVQHALFVYRYQEPIELRPMLGKMAALALLTNLLFSIGIMLG | failed
MGKTAIKSTAKVLSFVVQKHWATRLHYDFRLELEGTMKSWAVPKGPSFDPNDKRMAVHVEDHPISYNSFEGEIPSGQYGAGKVIIWDKGTWIPLEDPHKGYRDGKLKFELRGLKLKGHWALVRMRKEENKKQEPWLLIKEKDEYVRSSREYSVVDEMPDSVAELEHHHHHH | not failed
MRPVDEQWIEILRIQALCARYCLTIDTQDGEGWAGCFTEDGAFEFDGWVIRGRPALREYADAHARVVRGRHLTTDLLYEVDGDVATGRSASVVTLATAAGYKILGSGEYQDRLIKQDGQWRIAYRRLRNDRLVSDPSVAVNVADADVAAVVGHLLAAARRLGTQMSDT | not failed
MPGIDKLPIEETLEDSPQTRSLLGVFEEDATAISNYMNQLYQAMHRIYDAQNELSAATHLTSKLLKEYEKQRFPLGGDDEVMSSTLQQFSKVIDELSSCHAVLSTQLADAMMFPITQFKERDLKEILTLKEVFQIASNDHDAAINRYSRLSKKRENDKVKYEVTEDVYTSRKKQHQTMMHYFCALNTLQYKKKIALLEPLLGYMQAQISFFKMGSENLNEQLEEFLANIGTSVQNV | failed
MHKVLVPFDGSEHAMRALGYVIELSGDLNKPLEVHVLNVQASPIDYSLYLAPDMIDGVKAGLKNEGKRVLDDAIALLAAAGVPFQAHVDLGNVAEQVEAEVQRLGCDAVVMGTRGLGNFGGLLLGSVATRVIHEVSVPVTLIK | failed
MIPEIAGLPALEWTSSAGHASYDEAEATLTLAAASGVDWTNDSLGGEPQHGATALGFRAPAAFSLSARVLVASPRTTFDAGVLTLWADSDHWAKLCFEYSPQGEAMVVSVVTNGYSDDSNGPVVTAPWVYLRVSRVGPAWAFHSSTDGRDWSLVRLFRLDTEKPVHVGFMSQAPMGDGCEARFDAIELKEEPPAELRDGS | failed
MWMKDPVARPLSPTRLQPALPPEAQSVPELEEVARVLAEIPRPLKRRGSMEQAPAVALPPTHKKQYQQIISRLFHRHGGPGPGGRSQSCPPSLRDLRPGQGPLLLPHQLPFHRPAPSQSSPPEQPQSMEMRSVLRKAGSPRKARRARLNPLVLLLDAALTGELEVVQQAVKEMNDPSQPNEEGITALHNAICGANYSIVDFLITAGANVNSPDSHGWTPLHCAASCNDTVICMALVQHGAAIFATTLSDGATAFEKCDPYREGYADCATYLADVEQSMGLMNSGAVYALWDYSAEFGDELSFREGESVTVLRRDGPEETDWWWAALHGQEGYVPRNYFGLFPRVKPQRSKV | not failed
MGGATSGAVSSLNSRLALAHTPLLNTPQKPVDCRPHRTRTSDSAPMELHYRITPAHTEAWIAEPLKQELLKDDQQHVRAMSTFARWQSRFIGPVMFTLCLIGGCLSIYFPERNFTAEKVIAMVAFALIFIPLWWRFSGRWIKHLQARIAATPIKPQAPLRGLSQRLIETRLRAVEGTYCLNFDDQGFTLLNARGGQSSLAWKQIASVQEIPDFYLVADADMERQGVACFIAKHTDLMPTEAYQQGLQAFLSQCPAALPAH | failed
